Test results taken from the supplement of paper PMC10126150.
± gives the standard deviation of the averaged measurements.
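Further: ATP exposure 15 min at 22 °C before imaging.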

What follows are sequences tested on ATP (assay: switch fluorescence ratio, 500 uM ATP over buffer (Cy3 cluster intensity, sum of 5 cycles each) (fold (ratio)); higher = stronger signal-on switching upon ATP binding; sequences stand for … in TCGTCGGCAGCGTCAGATGTGTATAAGAGACAGTTTTTTTTTTTTTTTTTTTTTTTTT…TC). Conditions: aptamer strand: ATP DNA aptamer (quencher-CACCTGGGGGAGTATTGCGGAGGAAGG + anchor), 100 nM annealed; ATP concentration: 500 uM.
In short: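 Five buffer/ATP imaging cycles were run on Cy3-labelled switching-strand clusters on a modified Illumina MiSeq flow-cell, with NaOH stripping and re-annealing between cycles. In each cycle, clusters annealed to 100 nM quencher-labelled ATP aptamer were imaged in selection buffer, then after 15 min with 500 uM ATP at 22 °C. Per cluster, the fluorescence ratio is summed target-cycle over summed buffer-cycle Cy3 intensity, averaged per switch-domain sequence. Only clusters within 100-1000 RFU were kept.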
TTTCCAGGGA was tested, and the switch fluorescence ratio was 1.034 ± 0.0029.
GGGGGCGGGG gave a switch fluorescence ratio of 1.01 ± 0.03.
Work on CAAGTTAATT yielded a switch fluorescence ratio of 0.987 ± 0.011.
Work on ACGGGCGACG yielded a switch fluorescence ratio of 1.02 ± 0.025.
GGTTGATCCG showed a switch fluorescence ratio of 1.01 ± 0.0092.
In the case of GTTGGCAACA, the switch fluorescence ratio is reported as 1.04 ± 0.056.
Sequence TCCTTTTAAC has a switch fluorescence ratio of 1.25 ± 0.085.
With GCTCAAGCTA the switch fluorescence ratio was 1.15 ± 0.021.
Work on GGGGAGGGTA yielded a switch fluorescence ratio of 1.03 ± 0.015.
ACGGAGGATA was tested, and the switch fluorescence ratio was 1.11 ± 0.014.
CGAAGGGCTA was tested, and the switch fluorescence ratio was 1.15 ± 0.19.
Sequence ATAAGGCATG has a switch fluorescence ratio of 0.975 ± 0.021.
Work on AGAGCCACTG yielded a switch fluorescence ratio of 1.01 ± 0.024.
Sequence AAGTAGGTAT has a switch fluorescence ratio of 1.02 ± 0.011.
In the case of GGGGGGATAA, the switch fluorescence ratio is reported as 1.08 ± 0.21.
With GACACCAAAT the switch fluorescence ratio was 1.039 ± 0.0035.
With ATGTATTCAG the switch fluorescence ratio was 0.96694 ± 0.00025.
Work on AAGGGGGATT yielded a switch fluorescence ratio of 1.01 ± 0.044.
AAAGGGTTCG gave a switch fluorescence ratio of 1 ± 0.034.
ACTAGAGGAC was tested, and the switch fluorescence ratio was 1 ± 0.04.
TATTCCGCC showed a switch fluorescence ratio of 2.29 ± 0.033.
In the case of TGCCTTAAGT, the switch fluorescence ratio is reported as 1.01 ± 0.063.
ATACAGCACC was tested, and the switch fluorescence ratio was 1.45 ± 0.048.
Work on CTATTAATAC yielded a switch fluorescence ratio of 1.63 ± 0.096.
With GAGGAGCTGG the switch fluorescence ratio was 0.986 ± 0.051.
In the case of TAGCTTGGCA, the switch fluorescence ratio is reported as 0.991 ± 0.048.
For GATATTTTTT, the switch fluorescence ratio was 0.989 ± 0.012.
TTACCTCCGT was tested, and the switch fluorescence ratio was 2.19 ± 0.14.
Work on CGGGTGGCGG yielded a switch fluorescence ratio of 0.994 ± 0.012.
With TTTTGATGG the switch fluorescence ratio was 0.995 ± 0.036.
Sequence TTCGATTTGC has a switch fluorescence ratio of 1.01 ± 0.022.
TAGGTTTTGT gave a switch fluorescence ratio of 1 ± 0.044.
With TGCTAGGGTA the switch fluorescence ratio was 0.985 ± 0.012.
TGTAGCAGGT was tested, and the switch fluorescence ratio was 1.155 ± 0.0025.
GACAAAAAAA gave a switch fluorescence ratio of 1.06 ± 0.012.
Sequence TAAAGTACGT has a switch fluorescence ratio of 1.11 ± 0.021.
Sequence GTTTTGGGAG has a switch fluorescence ratio of 1.02 ± 0.033.
Sequence TATGGGTGTG has a switch fluorescence ratio of 1.02 ± 0.037.
GTGGGCAGCG showed a switch fluorescence ratio of 0.9666 ± 0.0047.
With TATGTGTCAG the switch fluorescence ratio was 0.977 ± 0.012.
GTTGTGAGCG showed a switch fluorescence ratio of 1.01 ± 0.048.
In the case of TCAACTGGTG, the switch fluorescence ratio is reported as 1.35 ± 0.16.
GGGGGGGAGA gave a switch fluorescence ratio of 1.02 ± 0.029.
AATTGTTATG gave a switch fluorescence ratio of 0.999 ± 0.039.
Work on ACCAATAGGA yielded a switch fluorescence ratio of 1.01 ± 0.021.
TTTGATACCA was tested, and the switch fluorescence ratio was 1.005 ± 0.0051.
CTGACTTACG gave a switch fluorescence ratio of 1.11 ± 0.016.
In the case of TCGAGTATAT, the switch fluorescence ratio is reported as 0.981 ± 0.021.
For AAAAATTCTG, the switch fluorescence ratio was 1.02 ± 0.014.
Work on GATGCGGCGT yielded a switch fluorescence ratio of 1.04 ± 0.021.
ATCAGGGGTT gave a switch fluorescence ratio of 1.34 ± 0.6.
TTTGTGTGGC was tested, and the switch fluorescence ratio was 0.99 ± 0.084.
With GTTTATGGGT the switch fluorescence ratio was 1.023 ± 0.009.
In the case of TGCTGAAGGA, the switch fluorescence ratio is reported as 0.9743 ± 0.0064.
CGGTGGTCGC showed a switch fluorescence ratio of 0.984 ± 0.019.
Work on ACATACGAGT yielded a switch fluorescence ratio of 1.38 ± 0.029.
AGGGAGGTTA showed a switch fluorescence ratio of 0.972 ± 0.06.
Sequence GATTTGGAAG has a switch fluorescence ratio of 1.01 ± 0.024.
ACATGATGGC gave a switch fluorescence ratio of 1.05 ± 0.018.
Work on GAGTCAGGGT yielded a switch fluorescence ratio of 1.02 ± 0.011.
AGACAGGGGG showed a switch fluorescence ratio of 1.11 ± 0.2.
For GAGAAGTTGA, the switch fluorescence ratio was 1 ± 0.02.
With TGGTTCTGAC the switch fluorescence ratio was 1.03 ± 0.038.
Sequence ATTGGACGTT has a switch fluorescence ratio of 0.988 ± 0.016.
For TTACATGAAT, the switch fluorescence ratio was 1.04 ± 0.033.
TTTGTTAATT was tested, and the switch fluorescence ratio was 0.996 ± 0.039.
With CGTCGACCGG the switch fluorescence ratio was 1 ± 0.022.
TGTTAGGGGG showed a switch fluorescence ratio of 1.01 ± 0.014.
For GGGGGACTAA, the switch fluorescence ratio was 0.996 ± 0.042.
CACATTGACC gave a switch fluorescence ratio of 1.1119 ± 7.1e-05.
For AAGCCGTGTC, the switch fluorescence ratio was 1.01 ± 0.031.
ATCCAGT gave a switch fluorescence ratio of 1.036 ± 0.0033.
GGTTGAGGCG was tested, and the switch fluorescence ratio was 0.981 ± 0.054.
ATTAGTCTAT gave a switch fluorescence ratio of 0.988 ± 0.036.
Sequence GAAGGAATAG has a switch fluorescence ratio of 1.66 ± 0.92.
With GATATATCAG the switch fluorescence ratio was 0.9771 ± 0.0017.
